From the Immune Epitope Database (IEDB)
One block for each sequence: values may come before it.

Key:
HLA-B*39:01 = assay: IEDB peptide-MHC binding, purified MHC/competitive/fluorescence; filed as Kd, often an IC50 or EC50 that approximates it; ≥ and ≤ were set here for values at or beyond the usual limits of such assays
HLA-B*08:01 = assay: IEDB peptide-MHC binding, purified MHC/competitive/radioactivity; filed as Kd, often an IC50 or EC50 that approximates it; ≥ and ≤ were set here for values at or beyond the usual limits of such assays
HLA-A*68:02 = assay: as above
HLA-A*02:06 = assay: as above
HLA-A*32:01 = assay: as above
HLA-A*02:01 = assay: IEDB peptide-MHC binding, purified MHC/competitive/fluorescence; ≥ and ≤ were set here for values at or beyond the usual limits of such assays; settings: source organism: Zaire ebolavirus
HLA-A*24:02 [1] = assay: as above
HLA-B*07:02 = assay: IEDB peptide-MHC binding, purified MHC/competitive/radioactivity; filed as Kd, often an IC50 or EC50 that approximates it; ≥ and ≤ were set here for values at or beyond the usual limits of such assays
HLA-B*53:01 = assay: as above; settings: source organism: Dengue virus 4 Philippines/H241/1956
HLA-B*35:01 = assay: as above; settings: source organism: Dengue virus 4 Philippines/H241/1956
HLA-A*26:01 [2] = assay: as above; settings: source organism: Mammarenavirus guanaritoense
HLA-A*01:01 = assay: as above
HLA-A*29:02 = assay: as above; settings: source organism: Mammarenavirus guanaritoense
HLA-A*30:02 = assay: as above; settings: source organism: Mammarenavirus guanaritoense
HLA-A*30:01 = assay: as above; settings: source organism: Mammarenavirus guanaritoense
HLA-A*26:01 [3] = assay: IEDB peptide-MHC binding, purified MHC/competitive/fluorescence; filed as Kd, often an IC50 or EC50 that approximates it; ≥ and ≤ were set here for values at or beyond the usual limits of such assays; settings: source organism: Yersinia enterocolitica
HLA-B*57:01 = assay: as above; settings: source organism: Yersinia enterocolitica
HLA-B*46:01 = assay: as above; settings: source organism: Yersinia enterocolitica
HLA-B*15:01 = assay: as above; settings: source organism: Yersinia enterocolitica
HLA-B*27:03 = assay: as above; settings: source organism: Yersinia enterocolitica
HLA-B*18:01 [4] = assay: as above; settings: source organism: Yersinia enterocolitica
HLA-B*44:02 [5] = assay: IEDB peptide-MHC binding, purified MHC/competitive/radioactivity; filed as Kd, often an IC50 or EC50 that approximates it; ≥ and ≤ were set here for values at or beyond the usual limits of such assays; settings: source organism: Dengue virus 4 Dominica/814669/1981
HLA-B*44:02 [6] = assay: IEDB peptide-MHC binding, purified MHC/direct/fluorescence; filed as Kd, often an IC50 or EC50 that approximates it; ≥ and ≤ were set here for values at or beyond the usual limits of such assays; settings: source organism: Amur virus
HLA-B*40:01 = assay: as above; settings: source organism: Amur virus
HLA-A*24:02 [7] = assay: IEDB peptide-MHC binding, purified MHC/competitive/radioactivity; filed as Kd, often an IC50 or EC50 that approximates it; ≥ and ≤ were set here for values at or beyond the usual limits of such assays; settings: source organism: Dengue virus 4 Philippines/H241/1956
HLA-A*23:01 = assay: as above; settings: source organism: Dengue virus 4 Philippines/H241/1956
HLA-B*18:01 [8] = assay: IEDB peptide-MHC binding, purified MHC/direct/fluorescence; filed as Kd, often an IC50 or EC50 that approximates it; ≥ and ≤ were set here for values at or beyond the usual limits of such assays; settings: source organism: Campylobacter jejuni RM1221
[9] = source organism: Dengue virus 2 Jamaica/1409/1983
[10] = source organism: Dengue virus 4 Philippines/H241/1956
[11] = source organism: Vaccinia virus WR
[12] = source organism: Zaire ebolavirus
[13] = source organism: Dengue virus 4 Dominica/814669/1981
[14] = source organism: Mammarenavirus guanaritoense
[15] = source organism: Dengue virus 1 Brazil/97-11/1997

Sequence: MQESGVSKL
Kd (HLA-B*39:01; source organism: Bacillus anthracis str. A0488): 11.4 nM

Sequence: MRRGDLPVWL
Kd (HLA-B*08:01; [9]): 5800 nM

Sequence: MTCIAVGGI
Kd (HLA-A*68:02; [10]): 74 nM

Sequence: MVAGGLLLA
Kd (HLA-A*68:02; [10]): 55.6 nM
Kd (HLA-A*02:06; [10]): 17.6 nM

Sequence: NINRLILNF
Kd (HLA-A*32:01; [11]): 2630 nM

Sequence: NITDKIDQI
IC50 (HLA-A*02:01): 25300 nM
IC50 (HLA-A*24:02 [1]; [12]): 9670 nM

Sequence: NKKYRCMAL
Kd (HLA-B*08:01; [11]): 1.87 nM

Sequence: NPGFALLAGF
Kd (HLA-B*07:02; [10]): 233 nM
Kd (HLA-B*53:01): 1520 nM
Kd (HLA-B*35:01): 5440 nM

Sequence: NTNSVTNIEL
Kd (HLA-A*68:02; [13]): 38.8 nM

Sequence: PSLCRVNNSY
Kd (HLA-A*32:01; [14]): 9850 nM
Kd (HLA-A*26:01 [2]): 16000 nM
Kd (HLA-A*01:01; [14]): 1220 nM
Kd (HLA-A*29:02): ≥ 20100 nM
Kd (HLA-A*30:02): 287 nM
Kd (HLA-A*30:01): 11200 nM

Sequence: QKKKQRSGVL
Kd (HLA-B*08:01; [15]): 1870 nM

Sequence: QSIFRFLNI
Kd (HLA-A*32:01; [11]): 299 nM

Sequence: QVFGSVYTT
Kd (HLA-A*32:01; [10]): 8250 nM

Kd (HLA-A*68:02; source organism: Homo sapiens): 8310 nM
Kd (HLA-A*02:06; source organism: Homo sapiens): ≥ 61900 nM
Sequence: RLKQLKRQL

Sequence: RLMSINRGF
Kd (HLA-A*32:01; [11]): 2.99 nM

Sequence: RQLTKFTDF
Kd (HLA-B*08:01; [11]): 155 nM

Sequence: RSNTTGKLI
IC50 (HLA-A*02:01): ≥ 805000 nM
IC50 (HLA-A*24:02 [1]; [12]): 44100 nM

Sequence: RTVSVMFFI
Kd (HLA-A*26:01 [3]): ≥ 20000 nM
Kd (HLA-B*57:01): 1240 nM
Kd (HLA-B*46:01): ≥ 20000 nM
Kd (HLA-B*15:01): ≥ 20000 nM
Kd (HLA-B*27:03): ≥ 20000 nM
Kd (HLA-B*18:01 [4]): ≥ 20000 nM
Kd (HLA-B*39:01; source organism: Yersinia enterocolitica): ≥ 20000 nM

Sequence: SDLKYSWKTW
Kd (HLA-B*44:02 [5]): 1010 nM
Kd (HLA-A*32:01; [13]): 683 nM

Sequence: SEGGIFNIT
Kd (HLA-B*44:02 [6]): ≥ 20000 nM
Kd (HLA-B*40:01): 813 nM

Sequence: SGIFITDNV
Kd (HLA-A*68:02; [9]): 12.1 nM

Sequence: SHRPVVLTG
IC50 (HLA-A*24:02 [1]; source organism: Variola virus): ≥ 71300 nM

Sequence: SIRFHIKEL
Kd (HLA-B*08:01; [11]): 0.453 nM

Sequence: SKKFKFNSQ
Kd (HLA-B*08:01; [11]): 6990 nM

Sequence: SKRTKSKIL
Kd (HLA-B*08:01; [11]): 140 nM

Sequence: SLNFRFENV
Kd (HLA-B*08:01; [11]): 586 nM

Sequence: SNKYRIKSV
Kd (HLA-B*08:01; [11]): 2.66 nM

Sequence: SPARLASAIL
Kd (HLA-B*07:02; [10]): 5.75 nM

Sequence: TPRAKRGTAQ
Kd (HLA-B*07:02; [15]): 113 nM

Sequence: TSIGKALHQV
Kd (HLA-A*68:02; [9]): 10.4 nM

Sequence: TTANWLWALL
Kd (HLA-A*68:02; [10]): 4.5 nM
Kd (HLA-A*01:01; [10]): 12300 nM

Sequence: VFYRSGTET
IC50 (HLA-A*24:02 [1]; source organism: Vaccinia virus Copenhagen): ≥ 148000 nM

Sequence: VMLLVHYAI
Kd (HLA-A*32:01; [10]): 11.6 nM
Kd (HLA-A*24:02 [7]): 54.4 nM
Kd (HLA-A*23:01): 95.5 nM

Sequence: VVAMRHLSL
Kd (HLA-B*08:01; [11]): 0.976 nM

Sequence: YHPVYILPY
Kd (HLA-B*18:01 [8]): 1430 nM

Sequence: YLRDHFYNL
Kd (HLA-B*08:01; [11]): 8.3 nM

Sequence: YPHYKSCAL
Kd (HLA-B*08:01; [11]): 1010 nM

Sequence: YTNSVTNIEL
Kd (HLA-A*68:02; [10]): 19.8 nM
